Measurements published in PMC10117100.

Target: Gluc1-E2F4 (human), Q16254
Test: split reporter (BiFC, NanoBiT); Gaussia princeps protein complementation assay (GPCA): Gluc1 and Gluc2 N-terminal fusions co-transfected in HEK293T, luminescence of lysates after 48 h as normalized luminescence ratio (NLR); pairs count as interacting if NLR is above 5
Conditions: remark: other sources report otherwise

Sequence of Gluc1-E2F4 (human), Q16254 (Q16254 whole entry, the tested form may be a part): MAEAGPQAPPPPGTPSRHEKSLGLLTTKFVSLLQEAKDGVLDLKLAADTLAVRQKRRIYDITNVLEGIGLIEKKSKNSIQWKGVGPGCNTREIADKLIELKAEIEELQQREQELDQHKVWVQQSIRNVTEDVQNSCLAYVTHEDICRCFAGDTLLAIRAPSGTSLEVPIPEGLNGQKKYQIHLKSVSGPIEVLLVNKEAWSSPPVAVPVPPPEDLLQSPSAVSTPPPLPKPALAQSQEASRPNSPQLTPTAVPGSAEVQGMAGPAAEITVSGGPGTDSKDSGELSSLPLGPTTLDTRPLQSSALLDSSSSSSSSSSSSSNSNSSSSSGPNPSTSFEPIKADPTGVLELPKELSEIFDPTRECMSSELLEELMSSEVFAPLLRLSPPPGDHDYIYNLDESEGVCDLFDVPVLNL

B1: Gluc2-p130, Q08999 1-1139 (natural protein)
chain: MPSGGDQSPPPPPPPPAAAASDEEEEDDGEAEDAAPPAESPTPQIQQRFDELCSRLNMDEAARAEAWDSYRSMSESYTLEGNDLHWLACALYVACRKSVPTVSKGTVEGNYVSLTRILKCSEQSLIEFFNKMKKWEDMANLPPHFRERTERLERNFTVSAVIFKKYEPIFQDIFKYPQEEQPRQQRGRKQRRQPCTVSEIFHFCWVLFIYAKGNFPMISDDLVNSYHLLLCALDLVYGNALQCSNRKELVNPNFKGLSEDFHAKDSKPSSDPPCIIEKLCSLHDGLVLEAKGIKEHFWKPYIRKLYEKKLLKGKEENLTGFLEPGNFGESFKAINKAYEEYVLSVGNLDERIFLGEDAEEEIGTLSRCLNAGSGTETAERVQMKNILQQHFDKSKALRISTPLTGVRYIKENSPCVTPVSTATHSLSRLHTMLTGLRNAPSEKLEQILRTCSRDPTQAIANRLKEMFEIYSQHFQPDEDFSNCAKEIASKHFRFAEMLYYKVLESVIEQEQKRLGDMDLSGILEQDAFHRSLLACCLEVVTFSYKPPGNFPFITEIFDVPLYHFYKVIEVFIRAEDGLCREVVKHLNQIEEQILDHLAWKPESPLWEKIRDNENRVPTCEEVMPPQNLERADEICIAGSPLTPRRVTEVRADTGGLGRSITSPTTLYDRYSSPPASTTRRRLFVENDSPSDGGTPGRMPPQPLVNAVPVQNVSGETVSVTPVPGQTLVTMATATVTANNGQTVTIPVQGIANENGGITFFPVQVNVGGQAQAVTGSIQPLSAQALAGSLSSQQVTGTTLQVPGQVAIQQISPGGQQQKQGQSVTSSSNRPRKTSSLSLFFRKVYHLAAVRLRDLCAKLDISDELRKKIWTCFEFSIIQCPELMMDRHLDQLLMCAIYVMAKVTKEDKSFQNIMRCYRTQPQARSQVYRSVLIKGKRKRRNSGSSDSRSHQNSPTELNKDRTSRDSSPVMRSSSTLPVPQPSSAPPTPTRLTGANSDMEEEERGDLIQFYNNIYIKQIKTFAMKYSQANMDAPPLSPYPFVRTGSPRRIQLSQNHPVYISPHKNETMLSPREKIFYYFSNSPSKRLREINSMIRTGETPTKKRGILLEDGSESPAKRICPENHSALLRRLQDVANDRGSH
For B1, the normalized luminescence ratio (NLR) was > 40.
